Measured values taken from US20220040297A1 (Chugai, published 2022).
Numbering of substitutions follows the chain as printed. Names may count otherwise. One block for each binder: values may come before it.

Legend:
CD3ε homodimer protein [1] = biological target: T1, CD3ε homodimer protein (human, UniProt P07766 23-126, limits assumed); experiment: SPR (Biacore T200, 25°C); CD3ε homodimer immobilized on CM4, one-arm antibody as analyte
T1 construct: also called human CD3ε homodimer protein; CD3e homodimer
T1 sequence (P07766 23-126 limits assumed): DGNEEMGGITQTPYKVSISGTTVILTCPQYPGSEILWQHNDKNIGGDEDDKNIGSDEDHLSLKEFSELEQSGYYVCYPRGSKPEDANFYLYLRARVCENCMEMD

CD3ε homodimer protein [2] = biological target: T2, CD3ε homodimer protein (human, UniProt P07766 23-126, limits assumed); experiment: SPR, CD3e immobilized
T2 construct: Whole entry named for the human CD3 epsilon chain
T2 sequence (P07766 23-126 limits assumed): as above
Experimental: Each one-amino acid altered form constructed, expressed, and purified in the paragraph (6-2) was evaluated using Biacore T200 (GE Healthcare Japan Corp.). An appropriate amount of CD3ε homodimer protein was immobilized onto Sensor chip CM4 (GE Healthcare Japan Corp.) by the amine coupling method. Then, the antibody having an appropriate concentration was injected thereto as an analyte and allowed to interact with the CD3ε homodimer protein on the sensor chip. Then, the sensor chip was regenerated by the injection of 10 mmol/L glycine-HCl (pH 1.5). The assay was conducted at 25° C., and HBS-EP+ (GE Healthcare Japan Corp.) was used as a running buffer. […] Each parameter was calculated using Biacore T200 Evaluation Software (GE Healthcare Japan Corp.).
Specifically, when the amount of the GLS3000-containing antibody bound was defined as X and the amount of the L chain one-amino acid altered form bound was defined as Y, a value of Z (ratio of amounts bound)=Y/X was used.

CD3ε homodimer protein [3] = biological target: T3, CD3ε homodimer protein (human, UniProt P07766 23-126, limits assumed, sulfo-tag or biotin label in some ECL assays); experiment: SPR, CD3ε homodimer on chip;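 further: biacore SPR with antibody variants flowed as analyte over amine-coupled CD3ε homodimer on a CM chip, bound amount of each single-residue H chain variant over that of parent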
T3 construct: also called human CD3ε homodimer protein; CD3 (CD3ε)
T3 sequence (P07766 23-126 limits assumed): as above

B1: NNS6f63 (antibody)
heavy: QVQLVESGGGLVQPGRSLRLSCAASGFTFSNAWMHWVRQAPGKGLEWVAQIKDKSNNYATYYAESVKGRFTISRDDSKNSIYLQMNSLKTEDTAVYYCRYVHYAAGGGGWVYYGVDAWGQGTTVTVSSASTKGPSVFPLAPSSKSTSGGTAALGCLVKDYFPEPVTVSWNSGALTSGVHTFPAVLQSSGLYSLSSVVTVPSSSLGTQTYICNVNHKPSNTKVDKKVEPKSCDKTHTCPPCPAPEAAGGPSVFLFPPKPKDTLMISRTPEVTCVVVDVSHEDPEVKFNWYVDGVEVHNAKTKPREEQYASTYRVVSVLTVLHQDWLNGKEYKCKVSNKALPAPIEKTISKAKGQPREPQVYTLPPSRCELTKNQVSLSCAVKGFYPSDIAVEWESNGQPENNYKTTPPVLDSDGSFFLVSKLTVDKSRWQQGNVFSCSVMHEALHNHYTQKSLSLSPDYKDDDDK
chain: EPKSSDKTHTCPPCPAPELLGGPSVFLFPPKPKDTLMISRTPEVTCVVVDVSHEDPEVKFNWYVDGVEVHNAKTKPREEQYNSTYRVVSVLTVLHQDWLNGKEYKCKVSNKALPAPIEKTISKAKGQPREPQVCTLPPSRDELTKNQVSLWCLVKGFYPSDIAVEWESNGQPENNYKTTPPVLDSDGSFFLYSKLTVDKSRWQQGNVFSCSVMHEALHNRYTQKSLSLSP
light: DIVMTQSPLSLPVTPGEPASISCRSSQSLVHSNRNTYLHWYQQKPGQAPRLLIYKVSNRFSGVPDRFSGSGSGTDFTLKISRVEAEDVGVYYCGQGTQVPYTFGQGTKLEIKRTVAAPSVFIFPPSDEQLKSGTASVVCLLNNFYPREAKVQWKVDNALQSGNSQESVTEQDSKDSTYSLSSTLTLSKADYEKHKVYACEVTHQGLSSPVTKSFNRGEC
notes: one-arm antibody
Kd (CD3ε homodimer protein [1]): 69 nM

B3: GLS3000 F55K (antibody, IgG1, name in Kabat numbering, V domains shown)
VH: QVQLVESGGGVVQPGRSLRLSCAASGFTFSNAWMHWVRQAPGKGLEWVAQIKAKSNNYATYYAESVKGRFTISRDDSKNSLYLQMNSLKTEDTAVYYCRYVHYGAYYGVDAWGQGTTVTVSS
VL: DIVMTQSPLSLPVTPGEPASISCRSSQSLVHSNRNTYLHWYQQKPGQAPRLLIYKVSNRKSGVPDRFSGSGSGTDFTLKISRVEAEDVGVYYCGQGTQVPYTFGQGTKLEIK
KD ratio to GLS3000 (CD3ε homodimer protein [2]): 1.22

B4: GLS3000 R29V (antibody, IgG1, name in Kabat numbering, V domains shown)
VH: B3 VH
VL: B3 VL with R34V, K60F
KD ratio to GLS3000 (CD3ε homodimer protein [2]): 3.25

B6: GLS3000 P95E (antibody, IgG1, name in Kabat numbering, V domains shown)
VH: B3 VH
VL: B3 VL with K60F, P100E
KD ratio to GLS3000 (CD3ε homodimer protein [2]): 1.61

B7: CE115HA000 Y100aS (antibody, name in Kabat numbering, V domains shown)
VH: B3 VH with Y107S
VL: B3 VL with K60F
ratio of amounts bound vs CE115HA000 (CD3ε homodimer protein [3]): 0.64

B9: GLS3000 G89A (antibody, IgG1, name in Kabat numbering, V domains shown)
VH: B3 VH
VL: B3 VL with K60F, G94A
KD ratio to GLS3000 (CD3ε homodimer protein [2]): 1.3

B10: GLS3000 G89W (antibody, IgG1, name in Kabat numbering, V domains shown)
VH: B3 VH
VL: B3 VL with K60F, G94W
KD ratio to GLS3000 (CD3ε homodimer protein [2]): 2.3

B11: GLS3000 Q90Y (antibody, IgG1, name in Kabat numbering, V domains shown)
VH: B3 VH
VL: B3 VL with K60F, Q95Y
KD ratio to GLS3000 (CD3ε homodimer protein [2]): 36.3

B14: GLS3000 N28D (antibody, IgG1, name in Kabat numbering, V domains shown)
VH: B3 VH
VL: B3 VL with N33D, K60F
KD ratio to GLS3000 (CD3ε homodimer protein [2]): 4460

B15: GLS3000 H34M (antibody, IgG1, name in Kabat numbering, V domains shown)
VH: B3 VH
VL: B3 VL with H39M, K60F
KD ratio to GLS3000 (CD3ε homodimer protein [2]): 3.36

B16: GLS3000 H34R (antibody, IgG1, name in Kabat numbering, V domains shown)
VH: B3 VH
VL: B3 VL with H39R, K60F
KD ratio to GLS3000 (CD3ε homodimer protein [2]): 85800

B20: GLS3000 L27bE (antibody, IgG1, name in Kabat numbering, V domains shown)
VH: B3 VH
VL: B3 VL with L29E, K60F
KD ratio to GLS3000 (CD3ε homodimer protein [2]): 26.8

B22: GLS3000 L33P (antibody, IgG1, name in Kabat numbering, V domains shown)
VH: B3 VH
VL: B3 VL with L38P, K60F
KD ratio to GLS3000 (CD3ε homodimer protein [2]): 12.7

B23: GLS3000 G91S (antibody, IgG1, name in Kabat numbering, V domains shown)
VH: B3 VH
VL: B3 VL with K60F, G96S
KD ratio to GLS3000 (CD3ε homodimer protein [2]): 7210

B25: GLS3000 G89Y (antibody, IgG1, name in Kabat numbering, V domains shown)
VH: B3 VH
VL: B3 VL with K60F, G94Y
KD ratio to GLS3000 (CD3ε homodimer protein [2]): 1.32

B26: GLS3000 H34E (antibody, IgG1, name in Kabat numbering, V domains shown)
VH: B3 VH
VL: B3 VL with H39E, K60F
KD ratio to GLS3000 (CD3ε homodimer protein [2]): 5.03

B27: GLS3000 N30Y (antibody, IgG1, name in Kabat numbering, V domains shown)
VH: B3 VH
VL: B3 VL with N35Y, K60F
KD ratio to GLS3000 (CD3ε homodimer protein [2]): 1.01

Continued, values first:

Kd (CD3ε homodimer protein [1]): 74 nM
B2: NNS6f17 (antibody)
heavy: B1 heavy with G106W, G108E, W110V
chain: B1 chain
light: B1 light
notes: one-arm antibody

KD ratio to GLS3000 (CD3ε homodimer protein [2]): 6.54
B5: GLS3000 S25E (antibody, IgG1, name in Kabat numbering, V domains shown)
VH: B3 VH
VL: B3 VL with S25E, K60F

KD ratio to GLS3000 (CD3ε homodimer protein [2]): 1.66
B8: GLS3000 S27eL (antibody, IgG1, name in Kabat numbering, V domains shown)
VH: B3 VH
VL: B3 VL with S32L, K60F

KD ratio to GLS3000 (CD3ε homodimer protein [2]): 0.96
B12: GLS3000 Y96F (antibody, IgG1, name in Kabat numbering, V domains shown)
VH: B3 VH
VL: B3 VL with K60F, Y101F

KD ratio to GLS3000 (CD3ε homodimer protein [2]): 1.3
B13: GLS3000 V27cE (antibody, IgG1, name in Kabat numbering, V domains shown)
VH: B3 VH
VL: B3 VL with V30E, K60F

KD ratio to GLS3000 (CD3ε homodimer protein [2]): 1.84
B17: GLS3000 S27eE (antibody, IgG1, name in Kabat numbering, V domains shown)
VH: B3 VH
VL: B3 VL with S32E, K60F

KD ratio to GLS3000 (CD3ε homodimer protein [2]): 1.01
B18: GLS3000 R45E (antibody, IgG1, name in Kabat numbering, V domains shown)
VH: B3 VH
VL: B3 VL with R50E, K60F

KD ratio to GLS3000 (CD3ε homodimer protein [2]): 2.53
B19: GLS3000 T92Y (antibody, IgG1, name in Kabat numbering, V domains shown)
VH: B3 VH
VL: B3 VL with K60F, T97Y

KD ratio to GLS3000 (CD3ε homodimer protein [2]): 0.86
B21: GLS3000 R45D (antibody, IgG1, name in Kabat numbering, V domains shown)
VH: B3 VH
VL: B3 VL with R50D, K60F

KD ratio to GLS3000 (CD3ε homodimer protein [2]): 0.98
B24: GLS3000 R45Q (antibody, IgG1, name in Kabat numbering, V domains shown)
VH: B3 VH
VL: B3 VL with R50Q, K60F
